Measurements published in publication PMC4731217, “Mutations in Mtr4 Structural Domains Reveal Their Important Role in Regulating tRNAiMet Turnover in Saccharomyces cerevisiae and Mtr4p Enzymatic Activities In Vitro”.

How the values were obtained:
[1] = molecular target: T1, Mtr4p-P731S (Saccharomyces cerevisiae, UniProt P47047 1-1073, P731S); assay: EMSA; no ATP or Mg2+ listed; 1 mM EDTA; EMSA: 0.5 nM RNA, 10 mM Tris pH 7.5, 1 mM EDTA, 100 mM KCl, 0.1 mM DTT, 5% glycerol, 1% NP40, on ice 30 min; 5% native PAGE at 4 C; conditions: protein: recombinant; tags: His (His60 Ni purification); label: 5' 32P on R4 (top strand); 16 bp duplex, 3' overhang 6 nt on R1
T1 sequence: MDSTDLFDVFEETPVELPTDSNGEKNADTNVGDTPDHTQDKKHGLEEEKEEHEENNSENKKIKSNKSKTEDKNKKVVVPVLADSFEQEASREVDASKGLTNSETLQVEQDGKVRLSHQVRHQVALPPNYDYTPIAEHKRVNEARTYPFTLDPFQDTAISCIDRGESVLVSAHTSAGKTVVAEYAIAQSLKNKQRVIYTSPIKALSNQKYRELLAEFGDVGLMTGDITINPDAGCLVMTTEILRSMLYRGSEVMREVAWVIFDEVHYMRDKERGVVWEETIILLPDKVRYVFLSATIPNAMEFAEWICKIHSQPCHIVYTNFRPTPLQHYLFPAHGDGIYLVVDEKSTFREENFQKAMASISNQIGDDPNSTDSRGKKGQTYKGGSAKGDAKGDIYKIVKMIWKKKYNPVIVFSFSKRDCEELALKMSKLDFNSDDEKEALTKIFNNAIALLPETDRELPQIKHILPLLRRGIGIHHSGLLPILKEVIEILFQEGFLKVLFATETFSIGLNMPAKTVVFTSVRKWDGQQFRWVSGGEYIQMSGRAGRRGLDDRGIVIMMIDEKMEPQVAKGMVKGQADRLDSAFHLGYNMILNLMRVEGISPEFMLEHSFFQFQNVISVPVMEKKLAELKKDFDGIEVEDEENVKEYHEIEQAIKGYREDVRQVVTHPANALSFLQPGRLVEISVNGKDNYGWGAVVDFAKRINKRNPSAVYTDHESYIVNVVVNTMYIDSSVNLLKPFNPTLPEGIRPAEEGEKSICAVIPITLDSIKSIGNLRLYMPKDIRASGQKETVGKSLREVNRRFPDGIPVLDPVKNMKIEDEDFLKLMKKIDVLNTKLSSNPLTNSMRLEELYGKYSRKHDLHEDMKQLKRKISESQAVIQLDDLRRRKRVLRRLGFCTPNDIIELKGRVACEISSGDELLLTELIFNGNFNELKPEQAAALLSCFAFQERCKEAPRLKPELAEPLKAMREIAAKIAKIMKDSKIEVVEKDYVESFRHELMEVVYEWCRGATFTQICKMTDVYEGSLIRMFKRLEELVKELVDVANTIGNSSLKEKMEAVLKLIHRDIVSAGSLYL

[2] = molecular target: T2, Mtr4p-K700N (Saccharomyces cerevisiae, UniProt P47047 1-1073, K700N); assay: as above; conditions: protein: recombinant; tags: His (His60 Ni purification); label: 5' 32P on R4 (top strand); 16 bp duplex, 3' overhang 6 nt on R1
T2 sequence: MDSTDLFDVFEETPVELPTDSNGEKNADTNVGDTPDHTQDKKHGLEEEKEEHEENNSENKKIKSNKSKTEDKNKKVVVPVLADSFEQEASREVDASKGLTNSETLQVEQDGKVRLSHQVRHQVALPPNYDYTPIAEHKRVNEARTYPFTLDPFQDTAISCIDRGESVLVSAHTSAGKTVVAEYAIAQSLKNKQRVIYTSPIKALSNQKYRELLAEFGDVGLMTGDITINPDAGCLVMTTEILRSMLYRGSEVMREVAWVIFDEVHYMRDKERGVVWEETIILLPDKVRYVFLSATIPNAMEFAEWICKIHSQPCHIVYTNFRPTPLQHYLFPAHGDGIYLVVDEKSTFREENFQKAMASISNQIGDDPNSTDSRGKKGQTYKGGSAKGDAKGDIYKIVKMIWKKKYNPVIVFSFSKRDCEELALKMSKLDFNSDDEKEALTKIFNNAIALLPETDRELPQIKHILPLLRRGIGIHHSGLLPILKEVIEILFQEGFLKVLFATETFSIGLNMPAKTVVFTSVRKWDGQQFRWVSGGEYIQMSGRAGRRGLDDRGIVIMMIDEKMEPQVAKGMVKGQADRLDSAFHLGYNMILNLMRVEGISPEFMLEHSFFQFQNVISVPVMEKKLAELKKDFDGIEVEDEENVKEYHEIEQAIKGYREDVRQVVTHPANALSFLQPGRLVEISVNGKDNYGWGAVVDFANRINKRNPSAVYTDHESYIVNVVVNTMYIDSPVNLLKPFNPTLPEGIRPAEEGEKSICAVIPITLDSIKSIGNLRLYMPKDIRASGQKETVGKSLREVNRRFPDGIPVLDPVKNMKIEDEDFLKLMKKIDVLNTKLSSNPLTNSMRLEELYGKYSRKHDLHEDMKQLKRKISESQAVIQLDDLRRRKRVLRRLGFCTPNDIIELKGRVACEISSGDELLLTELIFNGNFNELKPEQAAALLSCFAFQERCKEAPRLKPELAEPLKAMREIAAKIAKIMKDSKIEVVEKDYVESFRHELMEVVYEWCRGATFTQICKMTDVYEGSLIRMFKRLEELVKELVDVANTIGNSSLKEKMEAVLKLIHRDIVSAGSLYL

B1: R1-4 RNA duplex (R4 top / R1 bottom) (dsRNA)
RNA 1: AGCACCGUAAAGACGC
RNA 2: GCGUCUUUACGGUGCUAGCUUA
- binding signal [1]: ~50 % of wild-type complex
- binding signal [2]: < 50 % of wild-type complex
